Source: article PMC2908215 (Human mutation, 2010)

Target: T1, MLH1 p.Tyr750X (human, UniProt P40692 1-749)
T1 sequence (looked up): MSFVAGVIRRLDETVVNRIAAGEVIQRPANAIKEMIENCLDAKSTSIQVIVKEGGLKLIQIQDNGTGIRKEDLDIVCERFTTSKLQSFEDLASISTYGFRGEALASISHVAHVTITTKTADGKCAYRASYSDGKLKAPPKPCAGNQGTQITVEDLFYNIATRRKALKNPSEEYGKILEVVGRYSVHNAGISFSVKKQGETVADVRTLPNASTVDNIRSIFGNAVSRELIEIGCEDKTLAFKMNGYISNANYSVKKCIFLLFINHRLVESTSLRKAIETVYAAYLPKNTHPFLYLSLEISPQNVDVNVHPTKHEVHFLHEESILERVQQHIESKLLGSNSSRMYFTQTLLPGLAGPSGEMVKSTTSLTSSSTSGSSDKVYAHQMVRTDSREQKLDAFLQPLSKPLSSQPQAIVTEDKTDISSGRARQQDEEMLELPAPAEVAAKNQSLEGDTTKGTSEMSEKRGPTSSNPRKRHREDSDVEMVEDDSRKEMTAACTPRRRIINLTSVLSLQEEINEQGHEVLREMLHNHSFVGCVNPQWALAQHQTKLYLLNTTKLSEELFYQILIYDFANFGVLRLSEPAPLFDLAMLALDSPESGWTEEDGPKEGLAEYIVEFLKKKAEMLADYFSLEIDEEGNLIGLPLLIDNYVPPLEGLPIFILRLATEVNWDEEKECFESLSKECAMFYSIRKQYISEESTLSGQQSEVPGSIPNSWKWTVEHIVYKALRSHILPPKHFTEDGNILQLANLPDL
Assay: co-IP

B1: PMS2 (natural protein, UniProt P54278 1-862, looked up)
chain: MERAESSSTEPAKAIKPIDRKSVHQICSGQVVLSLSTAVKELVENSLDAGATNIDLKLKDYGVDLIEVSDNGCGVEEENFEGLTLKHHTSKIQEFADLTQVETFGFRGEALSSLCALSDVTISTCHASAKVGTRLMFDHNGKIIQKTPYPRPRGTTVSVQQLFSTLPVRHKEFQRNIKKEYAKMVQVLHAYCIISAGIRVSCTNQLGQGKRQPVVCTGGSPSIKENIGSVFGQKQLQSLIPFVQLPPSDSVCEEYGLSCSDALHNLFYISGFISQCTHGVGRSSTDRQFFFINRRPCDPAKVCRLVNEVYHMYNRHQYPFVVLNISVDSECVDINVTPDKRQILLQEEKLLLAVLKTSLIGMFDSDVNKLNVSQQPLLDVEGNLIKMHAADLEKPMVEKQDQSPSLRTGEEKKDVSISRLREAFSLRHTTENKPHSPKTPEPRRSPLGQKRGMLSSSTSGAISDKGVLRPQKEAVSSSHGPSDPTDRAEVEKDSGHGSTSVDSEGFSIPDTGSHCSSEYAASSPGDRGSQEHVDSQEKAPKTDDSFSDVDCHSNQEDTGCKFRVLPQPTNLATPNTKRFKKEEILSSSDICQKLVNTQDMSASQVDVAVKINKKVVPLDFSMSSLAKRIKQLHHEAQQSEGEQNYRKFRAKICPGENQAAEDELRKEISKTMFAEMEIIGQFNLGFIITKLNEDIFIVDQHATDEKYNFEMLQQHTVLQGQRLIAPQTLNLTAVNEAVLIENLEIFRKNGFDFVIDENAPVTERAKLISLPTSKNWTFGPQDVDELIFMLSDSPGVMCRPSRVKQMFASRACRKSVMIGTALNTSEMKKLITHMGEMDHPWNCPHGRPTMRHIANLGVISQN
With B1 the “co-precipitated PMS2 in relation to wild-type” value was 23 % of wild-type.
